Results as given in patent EP1313846B1.

Target: Savinase® (subtilisin 309) (UniProt P29600)
Experiment: cell-based or functional assay

Chain of UniProt P29600 (P29600 whole entry): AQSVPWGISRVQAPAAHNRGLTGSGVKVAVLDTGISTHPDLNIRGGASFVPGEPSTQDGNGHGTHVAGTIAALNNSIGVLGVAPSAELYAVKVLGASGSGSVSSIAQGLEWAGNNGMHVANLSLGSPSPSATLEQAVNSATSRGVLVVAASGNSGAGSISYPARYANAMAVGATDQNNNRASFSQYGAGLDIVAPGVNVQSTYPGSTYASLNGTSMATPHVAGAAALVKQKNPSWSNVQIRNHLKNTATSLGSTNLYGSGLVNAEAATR

RA (%) (Residual Activity, Ovo-inhibition Assay; hydrolysis of Suc-Ala-Ala-Pro-Phe-pNA with and without inhibitor): < 5%
Substance: trypsin inhibitor type IV-0 (Ovo-inhibitor), Sigma T-1886 (from UniProt P10184 69-517)
